Results on 72 sequences are retold here after the supplement of paper PMC10567573.

± gives the standard deviation.

The series is described as follows: protein stability index of a GFP-peptide fusion (GPS, HEK-293T) (PSI 1-6); higher = more stable.
Where [1] appears, read: treatment: DMSO, c terminus: a fixed tail appended.
The mark [2] stands for this setting: treatment: MLN4924 1 uM, 8 h, c terminus: a fixed tail appended.
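Note: 24-mer peptide tiles fused after GFP, lentivirally expressed, FACS-sorted into six equal bins by GFP/DsRed ratio, decoded by Illumina sequencing, PSI is the read-weighted mean bin number.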

Turning to RPGETGMDVTSRCTLGDPNKLPEG [KLHL20], the protein stability index under setting [1] worked out at 5.16 ± 0.31 and the protein stability index under setting [2] was 5.11 ± 0.14.
For HQLLGLFPSTSYNARLQAMWGQSL [TNXB], the protein stability index under setting [1] was found to be 2.11 ± 0.35 and the protein stability index under setting [2] is 2.08 ± 0.23.
GATGECQNFLDPGYPLPKLDMNFS [ZNF449] gave a protein stability index under setting [1] of 3.47 ± 0.2 and a protein stability index under setting [2] of 3.67 ± 0.29.
On the same counts, the results for GGSSAVGQFVSLDGAGKTPTLGGG [BRF1] are 4.34 ± 0.49 and 4.82 ± 0.33.
In the case of RAISTSVCVRAHESVVKSEDFSLP [COX4I1], the protein stability index reads like this: under setting [1], 3.9 ± 0.17; under setting [2], 3.79 ± 0.34.
On to GKAAQAGVAVGDWVLSIDGENAGS [PDLIM7], for which the protein stability index by setting is: under setting [1], 3.97 ± 0.24; under setting [2], 4.2 ± 0.42.
For the sequence HTETGEEVLRMCVAVKKKLQLYFW [VPS39], the protein stability index was found to be 2.8 ± 0.85 under setting [1] and 2.82 ± 0.33 under setting [2].
With RIHSGEKPYGCVECGKAFSRSSIL [ZNF24], the protein stability index runs as follows: under setting [1], 2.24 ± 0.31; under setting [2], 2.83 ± 0.23.
On the same counts, the results for AVGAAAEAEADEEADPPASDLPTP [SNX8] are 5.5 ± 0.27 and 5.56 ± 0.19.
For the sequence RLRKHQHVGDFARDLAARWKKLVL [ELOA2], the protein stability index by setting is: under setting [1], 2.23 ± 0.61; under setting [2], 2.54 ± 0.9.
As for ICTNLCEALQNFFSLACSLMGPSR [M1AP], the protein stability index was 2.33 ± 0.28 under setting [1] and 2.26 ± 0.1 under setting [2].
QVDGGANFSVDRWERKEGGGGISC [CPOX]: the protein stability index is, setting by setting: under setting [1], 4.4 ± 0.12; under setting [2], 4.48 ± 0.21.
With RDGGLCVNDLAVGLRRLGLHRTEG [SLC25A25], the protein stability index under setting [1] is 3.12 ± 0.16 and the protein stability index under setting [2] is 2.99 ± 0.14.
For the sequence KCKAEHDQLLLNYAKKESDLNGAQ [LMNB1], the protein stability index by setting is: under setting [1], 4.03 ± 0.38; under setting [2], 4.01 ± 0.32.
The sequence PARDYVVLRTWRTNLPKGACALLL [DLC1] gave a protein stability index under setting [1] of 2.47 ± 1.3 and a protein stability index under setting [2] of 2.22 ± 0.4.
On the same counts, the results for ANISIANKYDNTCLMIAAYKGHTD [FEM1B] are 2.75 ± 0.17 and 2.98 ± 0.32.
YNIKLEGKVPMHKLFLEMLEAKV [ESRRG] showed a protein stability index (treatment: DMSO, c terminus: native) of 2.83 ± 1.5 and a protein stability index (treatment: MLN4924 1 uM, 8 h, c terminus: native) of 2.43 ± 1.
As for RRLKTTRLKEYTIKSHSSLPPNNS [DAPK3], the protein stability index came to 3.44 ± 0.3 under setting [1] and 3.61 ± 0.28 under setting [2].
AQAGGSKKAEQKKKEKIIEDKTFG [ZC3H15]: the protein stability index by setting is: under setting [1], 5.12 ± 0.17; under setting [2], 5.23 ± 0.16.
For LHKQVLMGPYNPDTCPEVGFFDVL [ACBD3], in that order: 2.4 ± 0.31 and 2.18 ± 0.21.
For the sequence QPWHAVMDIESLSVFTEPNRHFYR [FBXO33], the protein stability index is 2.26 ± 0.18 under setting [1] and 2.11 ± 0.13 under setting [2].
In turn, DSYTATGYGRAPGGLSLHDYKLLK [JUNB] showed a protein stability index under setting [1] of 3.36 ± 0.24 and a protein stability index under setting [2] of 3.39 ± 0.21.
In turn, DENLDRMVPISKQPKEKIQAIIES [NOL4L] gave a protein stability index under setting [1] of 4.88 ± 0.38 and a protein stability index under setting [2] of 4.83 ± 0.21.
VSASGKEMDWAQMACHRCLVYLGD [SMG5]: the protein stability index turned out to be 2.1 ± 0.36 under setting [1] and 2.21 ± 0.52 under setting [2].
On the same counts, the results for GMNGQMLCNLGKERFLELAPDFVG [ETS2] are 2.89 ± 0.32 and 2.91 ± 0.21.
For the sequence AQTLAYGDMNHEWIGNEWLPSLGL [PPFIA4], the protein stability index is, setting by setting: under setting [1], 2.54 ± 0.43; under setting [2], 2.24 ± 0.029.
LVHHRAAHSNEILIFSVQPKSLVR [KLHDC2]: the protein stability index by setting is: under setting [1], 2.45 ± 0.31; under setting [2], 2.21 ± 0.24.
ESLREELICLKKNHEEEVNTLRSQ [KRT34]: the protein stability index is 4.91 ± 0.23 under setting [1] and 5.04 ± 0.23 under setting [2].
On to SAVEKEPARAPPEPPHNLFCAPGS [SERTAD3], for which the protein stability index was 4.95 ± 0.24 under setting [1] and 4.98 ± 0.078 under setting [2].
Take QVVGQVNVEMDATPGIDLTRVLAE [KRT13]: the protein stability index was 4.07 ± 0.32 under setting [1] and 4.15 ± 0.2 under setting [2].
Consider DARMLDHLTKKDLRVHLKMVDSFH [PPFIA4], for which the protein stability index by setting is: under setting [1], 2.48 ± 0.37; under setting [2], 2.78 ± 0.44.
On the same counts, the results for CPSPEALSPEPPVYSLQDFDTLAT [PRKX] are 4.61 ± 0.26 and 4.84 ± 0.053.
Regarding QDQGYKTLRLRENCVLSSSPNPFP [ZNF8], the protein stability index under setting [1] stood at 3.25 ± 0.11 and the protein stability index under setting [2] is 3.43 ± 0.22.
Regarding QMPQGNPLLLSHTLQELLARDTVQ [SNX8], the protein stability index is, setting by setting: under setting [1], 3.23 ± 0.086; under setting [2], 3.15 ± 0.27.
Sequence MSVSEIFVELQGFLAAEQDIREEI [TSN] came in with a protein stability index under setting [1] of 2.39 ± 0.42 and a protein stability index under setting [2] of 2.72 ± 0.26.
For IVSRATGRCLEVEMSKDANFGLRL [GALNT9], in that order: 2.66 ± 0.76 and 2.72 ± 0.67.
The sequence FYMRTNPFYPEVELNFISVFWPQL [MMP1] yielded a protein stability index under setting [1] of 3.11 ± 0.38 and a protein stability index under setting [2] of 2.89 ± 0.25.
For FNLTPPICEQAEYHMFQREKVEVQ [KCNAB2], the protein stability index by setting is: under setting [1], 3.72 ± 0.24; under setting [2], 3.88 ± 0.17.
In turn, EFHQRRSEIIQITTGSKELDKLLQ [RAD51] came in with a protein stability index under setting [1] of 2.93 ± 0.2 and a protein stability index under setting [2] of 3.03 ± 0.51.
For QSETQGLEGAQAPLAVEEDASSST [MAGEA10], in that order: 5.64 ± 0.26 and 5.52 ± 0.33.
With AEGNNQAPGEEEEEEEEATNTHPP [CHGA], the protein stability index was determined as 5.35 ± 0.43 under setting [1] and 5.61 ± 0.34 under setting [2].
With NFQQPGFTSGTGHFTAMVWKNTKK [GLIPR2], the protein stability index under setting [1] came to 3.74 ± 0.32 and the protein stability index under setting [2] amounted to 3.95 ± 0.067.
For VITKHNDDEQYAWESSAGGSFTVR [HSP90AB1], in that order: 3.98 ± 0.2 and 4.16 ± 0.21.
For RFYYSEDDHGDECSYTDLLPQDEG [KCNA4], in that order: 5.07 ± 0.19 and 4.88 ± 0.27.
On the same counts, the results for IHSCFSDVTCFLLPHPGLQVATSP [ATL3] are 2.34 ± 0.7 and 2.29 ± 0.49.
Turning to LSGVSQLLPKSRENYLNRCMDQER [FCHO1], the protein stability index reads like this: under setting [1], 3.78 ± 0.21; under setting [2], 3.95 ± 0.14.
As to WKKLVLVDRNTRPGPQDPEESASR [ELOA2], the protein stability index came to 4.28 ± 0.16 under setting [1] and 4.46 ± 0.11 under setting [2].
For CFRFRQSSGRRVSLHCLLDQFDKD [DENND6A], in that order: 2.5 ± 0.73 and 2.41 ± 0.53.
For AGPQSQVLCGVVMDRSLVQDAPLS [ADD1], the protein stability index amounted to 3.62 ± 0.2 under setting [1] and 3.59 ± 0.11 under setting [2].
With IIHVVKDQLIGQGIIVKDARLNGS [TENT5D], the protein stability index was determined as 2.2 ± 0.18 under setting [1] and 2.25 ± 0.72 under setting [2].
Sequence GRSSLTACSLPLCACLLGQKMLRH [PXN] displayed a protein stability index under setting [1] of 2.32 ± 0.28 and a protein stability index under setting [2] of 2.19 ± 0.16.
For the sequence SNISRPRDNPMCLKCDLQERLLCP [M1AP], the protein stability index reads like this: under setting [1], 2.87 ± 0.095; under setting [2], 3.05 ± 0.26.
On to DQTGSKSSNLLDLKNPFFRYTGTT [CARM1], for which the protein stability index reads like this: under setting [1], 3.44 ± 0.18; under setting [2], 3.28 ± 0.13.
For the sequence SKCQRLFRSPSMPCSVIRPILKRL [CDC25B], the protein stability index runs as follows: under setting [1], 2.85 ± 0.2; under setting [2], 2.65 ± 0.24.
In turn, LIANRSYKVSAASSFFFSGVFVGV [SLC22A15] gave a protein stability index under setting [1] of 2.69 ± 0.8 and a protein stability index under setting [2] of 2.49 ± 0.64.
In turn, LDKVKDGGYRPAEDKIFPVPEEPP [ZBED1] displayed a protein stability index under setting [1] of 5.11 ± 0.18 and a protein stability index under setting [2] of 5 ± 0.16.
Consider VSEDFNKMNFIKTYPAHQNRVSAI [WDFY1], for which the protein stability index was determined as 2.9 ± 0.21 under setting [1] and 3.03 ± 0.46 under setting [2].
Take TLEELLPPNTRVLRVLPNLPCVVQ [PYCR3]: the protein stability index runs as follows: under setting [1], 2.28 ± 0.28; under setting [2], 2.1 ± 0.38.
Take AGRGGAAGTAGVGETGSGDQAGGE [MYOZ1]: the protein stability index by setting is: under setting [1], 5.63 ± 0.24; under setting [2], 5.43 ± 0.32.
On the same counts, the results for LVQDLVDSLKFAVLMWLLTYVGAL [RTN1] are 2.94 ± 0.2 and 2.85 ± 0.26.
In the case of KLSARDHQKLEREARICRLLKHPN [CAMK2D], the protein stability index is, setting by setting: under setting [1], 3.38 ± 0.31; under setting [2], 3.8 ± 0.39.
Consider HNYKEMRQLMKVVNEMCPNITRIY [CPXM2], for which the protein stability index stood at 2.11 ± 0.37 under setting [1] and 2.17 ± 0.31 under setting [2].
For the sequence TTNPHTSASHRPCVNGDVDKPSEP [SMG5], the protein stability index stood at 5.15 ± 0.23 under setting [1] and 5.12 ± 0.14 under setting [2].
For DYQPTQAGRLMRPSVKYLSHPRVQ [RNF180], in that order: 3.34 ± 0.22 and 3.4 ± 0.12.
On the same counts, the results for SFINFFTSVLATLVVFAVLGFKAN [SLC6A17] are 4.11 ± 0.85 and 3.06 ± 0.36.
On the same counts, the results for WTQATGLGCALLAAHAVVLCALPV [SOAT2] are 3.18 ± 0.35 and 2.97 ± 0.095.
In the case of KGFPGCKLGLHDNHWVPACHSFNR [FBXO34], the protein stability index under setting [1] was found to be 2.26 ± 0.69 and the protein stability index under setting [2] worked out at 2.48 ± 0.15.
In the case of QAQPGEATSGPPGIQPGQEPPVTM [PALM], the protein stability index was found to be 5.6 ± 0.19 under setting [1] and 5.33 ± 0.24 under setting [2].
For TNTLTRIAENGVSERDSEAAKQNH [EHMT1], in that order: 5.41 ± 0.18 and 5.26 ± 0.29.
For EKSGSAEPFVLPASSVESTLPVLE [FBXO34], in that order: 5.08 ± 0.39 and 5.01 ± 0.34.
For PKRMPSGRGGRDRFTAESYTVLGD [FSD1], the protein stability index by setting is: under setting [1], 4.11 ± 0.33; under setting [2], 4.3 ± 0.22.
Take KKCGRENWTVAFAPDGSYFAWSQG [WSB1]: the protein stability index stood at 2.33 ± 0.53 under setting [1] and 2.22 ± 0.31 under setting [2].
